From patent US20240018256A1 (JUNO THERAPEUTICS, published 2024)
Positions count from the first letter of the chain named. Numbers in names are those of the source.

How the values were obtained:
human CD19 [1] = target: T1, human CD19 (human, UniProt P15391 20-556); test: flow cytometry on CD19-expressing cells (n = 4)
T1 sequence: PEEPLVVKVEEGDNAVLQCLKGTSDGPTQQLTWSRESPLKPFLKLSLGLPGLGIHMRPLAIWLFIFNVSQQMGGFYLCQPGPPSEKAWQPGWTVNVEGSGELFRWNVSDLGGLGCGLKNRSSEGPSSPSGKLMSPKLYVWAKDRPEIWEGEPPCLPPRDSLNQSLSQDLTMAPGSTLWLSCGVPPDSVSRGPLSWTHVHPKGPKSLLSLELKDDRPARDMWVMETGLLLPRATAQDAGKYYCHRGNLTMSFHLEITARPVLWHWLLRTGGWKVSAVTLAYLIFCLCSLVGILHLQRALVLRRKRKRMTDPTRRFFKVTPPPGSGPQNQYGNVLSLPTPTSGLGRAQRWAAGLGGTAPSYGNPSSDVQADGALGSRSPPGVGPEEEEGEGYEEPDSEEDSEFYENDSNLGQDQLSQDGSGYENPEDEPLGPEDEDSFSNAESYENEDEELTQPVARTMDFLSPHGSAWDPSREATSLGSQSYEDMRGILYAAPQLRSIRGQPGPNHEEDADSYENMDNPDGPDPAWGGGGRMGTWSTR

human CD19 [2] = target: T1, human CD19; test: flow cytometry competition for binding with FMC63 (n = 6)
human CD19 [3] = target: T1, human CD19; test: flow cytometry, in vitro-translated FLAG-tagged scFv on CD19-expressing vs mock transfected K562 cells (FIG. 8D)
human CD19 [4] = target: T1, human CD19; test: flow cytometry on CD19-expressing cells (n = 5)
human CD19 [5] = target: T1, human CD19; test: flow cytometry on CD19-expressing cells, summary
human CD19 [6] = target: T1, human CD19; test: flow cytometry competition for binding with FMC63 (n = 2)
human CD19 [7] = target: T1, human CD19; test: flow cytometry, scFv titrated on CD19-expressing K562 cells (FIG. 3B)
human CD19 [8] = target: T1, human CD19; test: flow cytometry, scFv titrated on CD19-expressing K562 cells (FIG. 3C)
human CD19 [9] = target: T1, human CD19; test: flow cytometry competition for binding with FMC63, summary (n = 2)
human CD19 [10] = target: T1, human CD19; test: flow cytometry, scFv titrated on CD19-expressing K562 cells (FIG. 3A)
human CD19 [11] = target: T1, human CD19; test: flow cytometry, scFv titrated on CD19-expressing K562 cells (FIG. 4, one plate)
human CD19 [12] = target: T1, human CD19; test: flow cytometry on CD19-expressing cells (n = 1)
Excerpt: (§1) Various clones were titrated and their binding affinity (EC50) to various CD19-expressing cells assessed by flow cytometry.

human CD19 [13] = target: T1, human CD19; test: flow cytometry on CD19-expressing cells, summary (n = 1)
human CD19 [14] = target: T1, human CD19; test: flow cytometry competition for binding with FMC63 (n = 1)
human CD19 [15] = target: T1, human CD19; test: flow cytometry competition for binding with FMC63, summary (n = 1)
human CD19 [16] = target: T1, human CD19; test: flow cytometry on Ramos cells; probe concentration said to be about its EC50
human CD19 [17] = target: T1, human CD19; test: flow cytometry competition for binding with FMC63
human CD19 [18] = target: T1, human CD19; test: flow cytometry, HIS-tagged scFv bacterial supernatant on CD19-transfected HEK293 cells (FIG. 8C)
Excerpt: A third scFv library was generated by shuffling the VH sequences from the selection in (a) with the VL sequences resulting from the selection in (b). […] Binding by the selected scFv clones to CD19-expressing cells was confirmed by flow cytometry using bacterially-produced supernatant. The selected scFv pools were cloned into E. coli expression vectors and produced as HIS-tagged scFvs. Binding of individual clones to CD19-transfected HEK293 cells was detected with anti-HIS-Alexa647 conjugate by flow cytometry.

human CD19 [19] = target: T1, human CD19; test: flow cytometry on CD19-expressing cells, summary (n = 7)
human CD19 [20] = target: T1, human CD19; test: flow cytometry competition for binding with FMC63, summary (n = 3)
Procedure: (§2) Competition binding assays were performed to assess competition of various antibodies for binding to CD19-expressing cells.

human CD19 [21] = target: T1, human CD19; test: flow cytometry competition with labeled FMC63 IgG on CD19-expressing cells (FIG. 5B)
Procedure: as §2

human CD19 [22] = target: T1, human CD19; test: flow cytometry, scFv titrated on CD19-expressing K562 cells (FIG. 4, another plate)
human CD19 [23] = target: T1, human CD19; test: flow cytometry on CD19-expressing cells (n = 7)
Excerpt: as §1

human CD19 [24] = target: T1, human CD19; test: flow cytometry on CD19-expressing cells, summary (n = 5)
human CD19 [25] = target: T1, human CD19; test: flow cytometry competition for binding with FMC63 (n = 3)

B1: Clone 488 scFv (scFv)
scFv: EVQLVQSGGGLVQPGRSLRLSCAASGFTFDDYAMHWVRQAPGKGLEWVSGISWNSGSIGYADSVKGRFTISRDNAKNSLYLQMNSLRAEDTAVYYCARDQGYHYYDSAEHAFDIWGQGTVVTVSSGGGGSGGGGSGGGGSEIVLTQSPATLSLSPGETATLSCRASQSINHYLAWYQQKPGQAPRLLIYDASNRATGIPARFSGSGSGTDFTLTISSLEPEDFATYYCQQSYSHPRMYTFGQGTKLDIK
notes: Human scFv
- EC50 (human CD19 [1]): 2.9 nM
- IC50 (human CD19 [2]): 6.1 nM

B2: Clone 213 scFv (scFv)
scFv: B1 scFv with E1Q, L11V, D247E
- binding result (human CD19 [3]): binds

B3: Clone 76 scFv (scFv)
scFv: EVQLVESGGGLVQPGRSLRLSCAASGFTFDDYAMHWVRQAPGKGLEWVSGISWNSGRIGYADSVKGRFTISRDNAKNSLFLQMNSLRAEDTAVYYCARDQGYHYYDSAEHAFDIWGQGTVVTVSSGGGGSGGGGSGGGGSQSVLTQPPSVSAAPGQEVTISCSGSSSNIGNNYVSWYQQLPGTAPKLLIYDNDKRPSGIPDRFSGSKSGTSATLGITGLQTGDEADYYCGTWDGNLSAVFGGGTKVTVL
notes: Human scFv, VH-(G4S)3-VL
- EC50 (human CD19 [4]): 7 nM
- EC50 (human CD19 [5]): 8.04 nM
- IC50 (human CD19 [6]): 18.2 nM
- EC50 (human CD19 [7]): 7.9 nM
- EC50 (human CD19 [8]): 8.8 nM
- IC50 (human CD19 [9]): 18.2 nM

B4: Clone 17 scFv (scFv)
scFv: EVQLVESGGGLVQPGRSLRLSCAASGFTFDDYAMHWVRQAPGKGLEWVSGISWNSGRIGYADSVKGRFTISRDNAKNSLFLQMNSLRAEDTAVYYCARDQGYHYYDSAEHAFDIWGQGTMVTVSSGGGGSGGGGSGGGGSQSALTQPASVSGSPGQSITIFCTGTSSDVGGYNYVSWYQQLPGTAPKLLIYSNNQRPSGVPDRFSGSKSGTSASLAISGLRSEDEADYYCAAWDDSLSVVFGGGTKLTVL
notes: Human scFv, VH-(G4S)3-VL
- EC50 (human CD19 [4]): 11.6 nM
- EC50 (human CD19 [5]): 11.7 nM
- IC50 (human CD19 [6]): 35.4 nM
- EC50 (human CD19 [10]): 14.9 nM
- IC50 (human CD19 [9]): 35.4 nM
- EC50 (human CD19 [11]): 8.32 nM

B5: Clone 5 scFv (scFv)
scFv: EVQLVESGGGLVQPGRSLRLSCAASGFTFDDYAMHWVRQAPGKGLEWVSGISWNSGRIGYADSVKGRFTISRDNAKNSLFLQMNSLRAEDTAVYYCARDQGYHYYDSAEHAFDIWGQGTMVTVSSGGGGSGGGGSGGGGSSYELTQDPAVSVALGQTVRITCQGDSLRSYYASWYQQKPGQAPVLVIYDKNNRPSGIPDRFSGSSSGNTASLTITGAQAEDEADYYCNSRDSSGNNWVFGGGTKLTVL
notes: Human scFv, VH-(G4S)3-VL
- EC50 (human CD19 [12]): 15.8 nM
- EC50 (human CD19 [13]): 15.8 nM
- IC50 (human CD19 [14]): 50 nM
- IC50 (human CD19 [15]): 50 nM
- EC50 (human CD19 [11]): 15.8 nM

B6: SJ25C1 IgG1 (antibody, V domains shown)
VH: EVKLQQSGAELVRPGSSVKISCKASGYAFSSYWMNWVKQRPGQGLEWIGQIYPGDGDTNYNGKFKGQATLTADKSSSTAYMQLSGLTSEDSAVYFCARKTISSVVDFYFDYWGQGTTVTVSS
VL: DIELTQSPKFMSTSVGDRVSVTCKASQNVGTNVAWYQQKPGQSPKPLIYSATYRNSGVPDRFTGSGSGTDFTLTITNVQSKDLADYFCQQYNRYPYTSGGGTKLEI
notes: Murine IgG1, FITC-labeled in the assay; also called FITC-labeled SJ25C1
- EC50 (human CD19 [16]): ~0.5 nM

B7: Clone 835 scFv (scFv)
scFv: EVQLVESGGGLVQPGRSLRLSCAASGFTFDDYAMHWVRLAPGKGLEWVSGISWNSGRIGYADSVKGRFTISRDNAKNSLFLQMNSLRAKDTAVYYCARDQGYHYYDSAEHAFDIWGQGTMVTVSSGGGGSGGGGSGGGGSQSVLTQPRSVSGSPGQSVTISCTGPISGVGDYTSVSWYQHYPGKTPKLIIYDVTQRPSGVPNRFSGSKSGNTASLTISGLQADDEADYYCCSYEAPTHTYVFGTGTKLTVL
notes: Human scFv
- EC50 (human CD19 [12]): 71.8 nM
- IC50 (human CD19 [17]): > 200 nM

B8: Clone 448 scFv (scFv)
scFv: QVQLVESGGGLVQPGRSLRLSCAASGFTFDDYAMHWVRQAPGKGLEWVSGISWNSGRIGYADSVKGRFTISRDNAKNSLFLQMNSLRAEDTAVYYCARDQGYHYYDSAEHAFDIWGQGTVVTVSSGGGGSGGGGSGGGGSQSALTQPASVSGSPGQSITISCTGTSSDLGGYNYVSWYQHRPGKAPKLIIYDVTVRPSGVSDRFSGSKSGNTASLTISGLQAEDEADYYCGSYTSSSTLLWVFGGGTKLDIK
notes: HIS- or FLAG-tagged
- binding result (human CD19 [18]): binds

B9: Clone 18 scFv (scFv)
scFv: EVQLVESGGGLVQPGRSLRLSCAASGFTFDDYAMHWVRQAPGKGLEWVSGISWNSGRIGYADSVKGRFTISRDNAKNSLFLQMNSLRAEDTAVYYCARDQGYHYYDSAEHAFDIWGQGTVVTVSSGGGGSGGGGSGGGGSQSALTQPRSVSGFPGQSVTISCTGTTSDDVSWYQQHPGKAPQLMLYDVSKRPSGVPHRFSGSRSGRAASLIISGLQTEDEADYFCCSYAGRYNSVLFGGGTKLTVL
notes: Human scFv, VH-(G4S)3-VL
- EC50 (human CD19 [19]): 4.1 nM
- EC50 (human CD19 [10]): 3.79 nM
- EC50 (human CD19 [7]): 7.1 nM
- IC50 (human CD19 [20]): 20.1 nM
- EC50 (human CD19 [11]): 4.79 nM
- IC50 (human CD19 [21]): 24 nM
- EC50 (human CD19 [22]): 3.11 nM

B10: Clone 18B scFv (scFv)
scFv: B9 scFv with C226S
notes: Clone 18 with cysteine to serine at Kabat position 89 of VL; also called germline variant of clone 18
- EC50 (human CD19 [23]): 4.9 nM
- EC50 (human CD19 [24]): 5.4 nM
- IC50 (human CD19 [25]): 32.9 nM
- EC50 (human CD19 [7]): 9.3 nM
- IC50 (human CD19 [15]): 28 nM

B11: Clone 440 scFv (scFv)
scFv: QVQLVESGGGLVQPGRSLRLSCAASGFTFDDYAMHWVRQAPGKGLEWVSGISWNSGRIGYADSVKGRFTISRDNAKNSLFLQMNSLRAEDTAVYYCARDQGYHYYDSAEHAFDIWGQGTVVTVSSGGGGSGGGGSGGGGSQSALTQPASVSGSPGHSITISCTGTRSDVGGFDYVSWYQHNPGKAPKLIIYDVTKRPSGVSNRFSGAKSGITASLTISGLQAEDEADYYCTSYRPGPTFVFGTGTKLDIK
notes: HIS- or FLAG-tagged
- binding result (human CD19 [18]): binds
